Test [1] deals with T1, ToxA:2459-2710 (C-terminal eleven repeats of the toxin A CWB domain) (Clostridium difficile, UniProt P16154 2459-2710).
Test [2] addresses T2, ToxB:1807-2366 (CWB domain of C. difficile toxin B, expressed in E. coli) (Clostridium difficile, UniProt P18177 1807-2366).
T2 construct: range 1807-2366
The test can be described thus: SPR, toxin domain immobilised, apparent Kd. (SPR reads the build-up and loss of mass on a sensor chip optically.)

Test [3] addresses T1, ToxA:2459-2710 (C-terminal eleven …). The test can be described thus: SPR, apparent KD.

This passage reports Kd results from US20090087478A1 (PROGENICS PHARMACEUTICALS NEVADA, published 2009).

Where two headings read alike, the source gives them in different places. Where only a bound is given, the exact number is not on record here.

B1: Antibody 227 (or 3359), murine monoclonal anti-toxin A antibody (antibody, V domains shown)
VH: EVQLVESGGGLMKPGGSLKLSCAASGFAFGSYDMSWVRQTPEKRLEWVAYISSGGGITFYPDSVRGRFTISRDNAKNSLYMEMSSLRSEDTAMYYCARWDWDLFAYWGQGTLVTVSA
VL: DIKMTQSPSSMYTSLGERVTITCKASQDINSCLSWFQQKPGKSPKALIFRANILVDGVPSRFSGSGSGQDYSLTISSLEYEDLGIYYCLQYDEFPWTFGGGTRLEIK
In test [1], B1 had a Kd of 12 nM.

B2: Antibody F87, murine monoclonal anti-toxin B antibody (antibody, V domains shown)
VH: QVQLQQPGTELVKPGASVKLSCKASGYTFTNYWMHWVKQRPGQGLEWVGNINPSNGGTNYNEKFKSKATLTVDKSSSTAYMQLSSLTSEDSAFYYCARGRGPPYYSDYWGQGSTLTVSS
VL: NIQMTQSPASLSASVGETVTITCRASGNIHNYLAWYQQKQGKSPQLLVYNAKTLADGVPSRFSGSGSGTQYSLKINSLQPEDFGSYYCQHFWSTPFTFGSGTKLEIK
Take B2: the Kd in test [2] amounted to 0.05 nM.

B3: Antibody 3358 (or 543), murine monoclonal anti-toxin A antibody (antibody, V domains shown)
VH: QVQLQQPGAELVKPGASVRLSCKAGGYTFTSYWLHWVKQRPGQGLEWIGMIHPNSGSYDYSETFRTKATLTVDKSSDTAYMQLTSLTSEDSAVYYCARGGSNYDIFAYWGQGTTLTVSS
VL: NIVMTQSPKSMSMSVGERVTFNCRASENVGTYVFWYQQKPEQSPRLLIYGASNRYTGVPDRFTGSGSATDFTLTISGVQAEDLADYHCGQSYRHLTFGGGTKLEIK
Take B3: the values for the Kd in test [3] and in test [1] were less than 30 nM and 0.7 nM, respectively.

B4: rPBA-3, chimeric recombinant form of anti-toxin A monoclonal antibody PBA-3 (wildtype, plasmids BD12584 heavy and BD12585 light) (antibody, V domains shown)
VH: QVQLQQSGPELVKPGASVRISCKASGFTFTSYHVNWVKQRPGQGLEWIGWIYPGNVNTEYNEKFKGKATLTADKSSSTAYMQLSSLTSEDSAVYFCASHEYYGSDWYFDVWGAGTTVTVSS
VL: DAVMTQTPLSLPVSLGDQASISCRSSQSLENRNGNTYLNWYLQKPGQSPQLLIYRVSNRFSGVLDRFSGSGSGTDFTLKISRVEAEDLGVYFCLQVTHVPYTFGGGTKLEIK
Consider B4, for which the Kd in test [1] amounted to 60 nM.
